Measurements as given in patent US20210024620A1.
pKd: −log10 of the molar value.

Experiments:
[1] = biological target: biotinylated human FcRn (human) (UniProt P55899); assay: Biacore, pH 6.0
rat FcRn (rat) [2] = biological target: rat FcRn (rat) (UniProt P13599); assay: Biacore, pH 6.0
[3] = biological target: biotinylated human FcRn (human) (UniProt P55899); assay: Biacore SPR, pH 7.4
rat FcRn (rat) [4] = biological target: rat FcRn (rat) (UniProt P13599); assay: Biacore SPR, pH 7.4
[5] = biological target: biotinylated human FcRn (human) (UniProt P55899); assay: Biacore SPR, pH 6.0
[6] = biological target: biotinylated human FcRn (p51 subunit residues 24-297 with C-terminal Avi-tag; beta2-microglobulin residues 21-119) (human) (UniProt P55899); assay: Biacore SPR, pH 6.0
rat FcRn (rat) [7] = biological target: rat FcRn (rat) (UniProt P13599); assay: Biacore SPR, pH 6.0
[8] = biological target: biotinylated human FcRn (human) (UniProt P55899); assay: Biacore, pH 6.0, apparent KD
rat FcRn (rat) [9] = biological target: rat FcRn (rat) (UniProt P13599); assay: Biacore, pH 6.0, apparent KD
[10] = biological target: biotinylated human FcRn (p51 subunit residues 24-297 with C-terminal Avi-tag; beta2-microglobulin residues 21-119) (human) (UniProt P55899); assay: Biacore SPR, pH 7.4, steady state
[11] = biological target: biotinylated human FcRn (human) (UniProt P55899); assay: Biacore, pH 7.4, steady state response
rat FcRn (rat) [12] = biological target: rat FcRn (rat) (UniProt P13599); assay: Biacore, pH 7.4, steady state response
[13] = biological target: Human CD16a (FcγRIIIa V158) with C-terminal HPC4 tag (human) (UniProt P08637); assay: Biacore, FcγRIIIa V158 captured, steady-state fit, apparent KD
Sequence of Human CD16a (FcγRIIIa V158) with C-terminal HPC4 tag (human) (P08637 17-208 F176V): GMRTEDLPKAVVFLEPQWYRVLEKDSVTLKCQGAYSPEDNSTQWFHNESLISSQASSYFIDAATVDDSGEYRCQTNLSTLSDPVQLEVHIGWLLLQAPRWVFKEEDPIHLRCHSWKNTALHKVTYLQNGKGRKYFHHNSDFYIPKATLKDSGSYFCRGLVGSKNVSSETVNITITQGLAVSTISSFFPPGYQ

[14] = biological target: biotinylated human FcRn (p51 subunit residues 24-297 with C-terminal Avi-tag; beta2-microglobulin residues 21-119) (human) (UniProt P55899); assay: Biacore; affinity at pH 6.0 (M^-1) over steady state RU at pH 7.4
[15] = biological target: FcRn immobilised on the FcRn affinity column (biotinylated cynoFcRn in one experiment, biotinylated hFcRn in another); assay: FcRn affinity chromatography, linear pH gradient; species of the immobilised FcRn not given
[16] = biological target: biotinylated human FcRn (p51 subunit residues 24-297 with C-terminal Avi-tag; beta2-microglobulin residues 21-119) (human) (UniProt P55899); assay: Biacore; inverse ratio (RU at pH 7.4 over affinity at pH 6.0)
[17] = biological target: biotinylated human FcRn (human) (UniProt P55899); assay: Biacore, biotin-captured hFcRn, pH 7.4
[18] = biological target: biotinylated human FcRn (human) (UniProt P55899); assay: Biacore, biotin-captured hFcRn, pH 8.0
[19] = biological target: biotinylated cynomolgus FcRn (cynomolgus) (UniProt Q8SPV9); assay: Biacore, biotin-captured cFcRn, pH 6.0
[20] = biological target: biotinylated cynomolgus FcRn (cynomolgus) (UniProt Q8SPV9); assay: Biacore, biotin-captured cFcRn, pH 7.4
[21] = biological target: biotinylated cynomolgus FcRn (cynomolgus) (UniProt Q8SPV9); assay: Biacore, biotin-captured cFcRn, pH 8.0
[22] = biological target: biotinylated human FcRn (human) (UniProt P55899); assay: Biacore, biotin-captured hFcRn, pH 7.4, 1000 nM antibody
[23] = biological target: biotinylated human FcRn (human) (UniProt P55899); assay: Biacore, biotin-captured hFcRn, pH 8.0, 1000 nM antibody
[24] = biological target: biotinylated human FcRn (human) (UniProt P55899); assay: Biacore, biotin-captured hFcRn, pH 9.0, 1000 nM antibody
[25] = biological target: biotinylated cynomolgus FcRn (cynomolgus) (UniProt Q8SPV9); assay: Biacore, biotin-captured cFcRn, pH 7.4, 1000 nM antibody
[26] = biological target: biotinylated cynomolgus FcRn (cynomolgus) (UniProt Q8SPV9); assay: Biacore, biotin-captured cFcRn, pH 8.0, 1000 nM antibody
[27] = biological target: biotinylated cynomolgus FcRn (cynomolgus) (UniProt Q8SPV9); assay: Biacore, biotin-captured cFcRn, pH 9.0, 1000 nM antibody
[28] = biological target: biotinylated human FcRn (human) (UniProt P55899); assay: Biacore SPR, pH 6.0; remark: listed apart in the source
[29] = biological target: biotinylated human FcRn (human) (UniProt P55899); assay: Biacore SPR, pH 7.4, 1000 nM antibody
rat FcRn (rat) [30] = biological target: rat FcRn (rat) (UniProt P13599); assay: Biacore SPR, pH 7.4, 1000 nM antibody
[31] = biological target: biotinylated human FcRn (human) (UniProt P55899); assay: Biacore, biotin-captured hFcRn, pH 6.0

Sequence of rat FcRn (rat) (P13599 23-298 limits assumed, chain 1 of 2): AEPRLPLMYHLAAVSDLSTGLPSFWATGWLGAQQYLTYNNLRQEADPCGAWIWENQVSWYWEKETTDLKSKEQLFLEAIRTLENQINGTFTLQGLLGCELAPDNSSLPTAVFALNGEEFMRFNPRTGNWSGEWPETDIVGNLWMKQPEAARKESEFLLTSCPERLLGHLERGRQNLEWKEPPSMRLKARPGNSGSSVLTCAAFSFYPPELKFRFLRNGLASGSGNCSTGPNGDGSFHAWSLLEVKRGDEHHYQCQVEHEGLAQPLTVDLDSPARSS
Sequence of rat FcRn (rat) (P07151 21-119 limits assumed, chain 2 of 2, further chain): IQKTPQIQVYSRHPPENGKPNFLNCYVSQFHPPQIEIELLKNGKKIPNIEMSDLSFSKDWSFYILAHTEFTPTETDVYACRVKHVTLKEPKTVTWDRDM

Row | koff [1] | kon [1] | koff (rat FcRn (rat) [2]) | kon (rat FcRn (rat) [2]) | Steady State RU [3] | Steady State RU (rat FcRn (rat) [4]) | Ka [6] | pKd (rat FcRn (rat) [7]) | Steady State Binding, pH 7.4 (RU) [10] | FcRn affinity column elution pH [15] | pKd [17] | pKd [18] | pKd [19] | pKd [20] | pKd [21] | Steady State RU [22] | Steady State RU [23] | Steady State RU [25] | Steady State RU [26] | Steady State RU [27] | Substance | further results
1 | 0.076 s⁻¹ | 590000 M⁻¹ s⁻¹ | 0.0027 s⁻¹ | 32000 M⁻¹ s⁻¹ | 9.8 RU | 55.1 RU | 7.81e+06 M⁻¹ | 8.07 | 9.8 RU | 7.83 pH |  |  |  |  |  |  |  |  |  |  | mAb1 YETN (M252Y/T256E) (antibody) | pKd [5]: 6.89; koff [5]: 0.0757 s⁻¹; kon [5]: 592000 M⁻¹ s⁻¹; koff (rat FcRn (rat) [7]): 0.00273 s⁻¹; kon (rat FcRn (rat) [7]): 324000 M⁻¹ s⁻¹; pKd [8]: 6.89; pKd (rat FcRn (rat) [9]): 8.08; Steady State RU [11]: 9.8 RU; Steady State RU (rat FcRn (rat) [12]): 55.1 RU; Ratio (pH 6.0/pH 7.4) [16]: 1.25e-06; pKd [13]: 6.06; Ratio (pH 6.0/pH 7.4) [14]: 797000
2 |  |  |  |  |  |  | 1.11e+08 M⁻¹ |  | 68.6 RU |  | 7.09 | 5.57 | 8.37 | 7.02 | 5.54 | 140 RU | 196 RU | 176 RU | 245 RU | 2.2 RU | mAb1 YDQF (M252Y/T256D/T307Q/N434F) (antibody) | Steady State RU [24]: 1.4 RU
3 |  |  |  |  |  |  |  |  |  |  | 7.21 | 5.72 | 8.21 | 7.20 | 5.89 | 141 RU | 245 RU | 162 RU | 303 RU | 5.4 RU | mAb1 YEWY (M252Y/T256E/T307W/N434Y) (antibody) | 

More lines, now with the values behind:

Row | Substance | koff [1] | kon [1] | koff (rat FcRn (rat) [2]) | kon (rat FcRn (rat) [2]) | Steady State RU [3] | Steady State RU (rat FcRn (rat) [4]) | Ka [6] | pKd (rat FcRn (rat) [7]) | Steady State Binding, pH 7.4 (RU) [10] | FcRn affinity column elution pH [15] | pKd [17] | pKd [18] | pKd [19] | pKd [20] | pKd [21] | Steady State RU [22] | Steady State RU [23] | Steady State RU [25] | Steady State RU [26] | Steady State RU [27] | further results
4 | mAb1 YTWN (M252Y/T307W) (antibody) | 0.057 s⁻¹ | 480000 M⁻¹ s⁻¹ | 0.0011 s⁻¹ | 21000 M⁻¹ s⁻¹ | 15.9 RU | 66.1 RU | 8.47e+06 M⁻¹ | 8.28 | 15.9 RU | 8.14 pH |  |  |  |  |  |  |  |  |  |  | pKd [5]: 6.93; koff [5]: 0.057 s⁻¹; kon [5]: 483000 M⁻¹ s⁻¹; koff (rat FcRn (rat) [7]): 0.00109 s⁻¹; kon (rat FcRn (rat) [7]): 208000 M⁻¹ s⁻¹; pKd [8]: 6.93; pKd (rat FcRn (rat) [9]): 8.28; Steady State RU [11]: 15.9 RU; Steady State RU (rat FcRn (rat) [12]): 66.1 RU; pKd [13]: 6.05; Ratio (pH 6.0/pH 7.4) [14]: 533000
5 | mAb1 wildtype (WT) human IgG1 antibody |  |  |  |  | 4.2 RU | 13 RU |  | 6.68 |  | 7.37 pH |  |  | 6.18 |  |  | 0.2 RU | 0.2 RU | 1.5 RU | 1.4 RU |  | pKd [28]: 5.62; Steady State RU [29]: 4.3 RU; Steady State RU (rat FcRn (rat) [30]): 12.2 RU; pKd [31]: 5.89
6 | YTEKF hIgG1 benchmark (M252Y/S254T/T256E/H433K/N434F) (antibody) |  |  |  |  |  |  |  |  |  |  | 7.13 | 5.62 | 8.08 | 7.12 | 5.49 | 132 RU |  | 152 RU | 268 RU | 3.8 RU | pKd [31]: 7.82; Steady State RU [24]: 2.7 RU
7 | mAb1 YDQN (M252Y/T256D/T307Q) (antibody) | 0.028 s⁻¹ | 250000 M⁻¹ s⁻¹ | 0.0003 s⁻¹ | 5000 M⁻¹ s⁻¹ |  |  | 8.7e+06 M⁻¹ |  | 19.8 RU | 8.51 pH |  |  |  |  |  |  |  |  |  |  | pKd [8]: 6.94; pKd (rat FcRn (rat) [9]): 8.29; Steady State RU [11]: 19.8 RU; Steady State RU (rat FcRn (rat) [12]): 65.2 RU; Ratio (pH 6.0/pH 7.4) [16]: 2.28e-06; pKd [13]: 5.97; Ratio (pH 6.0/pH 7.4) [14]: 439000
8 | mAb1 YDQY (M252Y/T256D/T307Q/N434Y) (antibody) |  |  |  |  |  |  | 2.35e+08 M⁻¹ |  | 80.2 RU |  | 7.30 | 6.17 | 8.72 | 7.25 | 6.31 | 157 RU | 264 RU | 196 RU | 325 RU | 6.3 RU | pKd [31]: 8.57; Steady State RU [24]: 4.6 RU
